The labels stand for the following.
B1: AXIN1 peptide 237-252 (Axin-1), 16-mer library wild type / PP2A B56 (PPP2R5A B56 domain, residues 1-486) (parent complex)
chain 1: YLPTLNEDEEWKADQD
chain 2: not shown

In the test the parent is B1. The experiment in a line: proteomic peptide phage display deep mutational scan (ProP-PD DMS): M13 P8 16-mer library selected against immobilised GST-tagged bait for four days (rounds), NGS of the eluted pools per day and pseudo-replica; bait immobilised on MaxiSorp plates (10 µg), library pre-cleared on GST, 2 h binding at 4 °C, five washes; one round per day, days 1-4; value from days 2 and 3.
With chain 1 D8V, the screen value is 0.000175 average fractional NGS count over selection days 2 and 3 (reads of this peptide / all reads for the bait, averaged over ….

For chain 1 D8R, the screen value is 0.000182 average fractional NGS count over selection days 2 and 3 (reads of this peptide / all reads for the bait, averaged over ….

For the variant chain 1 D8H, the screen value was 0.00852 average fractional NGS count over selection days 2 and 3 (reads of this peptide / all reads for the bait, averaged over ….

As for chain 1 D8S, the screen value was 0.0116 average fractional NGS count over selection days 2 and 3 (reads of this peptide / all reads for the bait, averaged over ….

For the variant chain 1 D8L, the screen value was 0.00362 average fractional NGS count over selection days 2 and 3 (reads of this peptide / all reads for the bait, averaged over ….

Turning to chain 1 D8Y, the screen value was 0.00257 average fractional NGS count over selection days 2 and 3 (reads of this peptide / all reads for the bait, averaged over ….

With chain 1 D8A, the screen value is 0.000509 average fractional NGS count over selection days 2 and 3 (reads of this peptide / all reads for the bait, averaged over ….

Turning to chain 1 E10L, the screen value is 0.00181 average fractional NGS count over selection days 2 and 3 (reads of this peptide / all reads for the bait, averaged over ….

Consider chain 1 E10T, for which the screen value was 0.00217 average fractional NGS count over selection days 2 and 3 (reads of this peptide / all reads for the bait, averaged over ….

As to chain 1 E10P, the screen value was 0.00206 average fractional NGS count over selection days 2 and 3 (reads of this peptide / all reads for the bait, averaged over ….

Regarding chain 1 E10R, the screen value is 0.000173 average fractional NGS count over selection days 2 and 3 (reads of this peptide / all reads for the bait, averaged over ….

Consider chain 1 E10I, for which the screen value is 0.0037 average fractional NGS count over selection days 2 and 3 (reads of this peptide / all reads for the bait, averaged over ….

As to chain 1 E10Y, the screen value is 0.00105 average fractional NGS count over selection days 2 and 3 (reads of this peptide / all reads for the bait, averaged over ….

On to chain 1 E10F, for which the screen value was 0.000572 average fractional NGS count over selection days 2 and 3 (reads of this peptide / all reads for the bait, averaged over ….

For the variant chain 1 E10V, the screen value is 0.0046 average fractional NGS count over selection days 2 and 3 (reads of this peptide / all reads for the bait, averaged over ….

With chain 1 E10M, the screen value was 0.00109 average fractional NGS count over selection days 2 and 3 (reads of this peptide / all reads for the bait, averaged over ….

Regarding chain 1 E9R, the screen value is 0.000957 average fractional NGS count over selection days 2 and 3 (reads of this peptide / all reads for the bait, averaged over ….

Turning to chain 1 E9H, the screen value was 0.000956 average fractional NGS count over selection days 2 and 3 (reads of this peptide / all reads for the bait, averaged over ….

For the variant chain 1 E9S, the screen value was 0.00105 average fractional NGS count over selection days 2 and 3 (reads of this peptide / all reads for the bait, averaged over ….

As to chain 1 E9P, the screen value is 0.00261 average fractional NGS count over selection days 2 and 3 (reads of this peptide / all reads for the bait, averaged over ….

Take chain 1 E9A: the screen value was 0.00203 average fractional NGS count over selection days 2 and 3 (reads of this peptide / all reads for the bait, averaged over ….

With chain 1 E9G, the screen value was 0.000581 average fractional NGS count over selection days 2 and 3 (reads of this peptide / all reads for the bait, averaged over ….

In the case of chain 1 E9N, the screen value was 0.000581 average fractional NGS count over selection days 2 and 3 (reads of this peptide / all reads for the bait, averaged over ….

Consider chain 1 E9Q, for which the screen value is 0.0159 average fractional NGS count over selection days 2 and 3 (reads of this peptide / all reads for the bait, averaged over ….

On to chain 1 E9I, for which the screen value was 0.00451 average fractional NGS count over selection days 2 and 3 (reads of this peptide / all reads for the bait, averaged over ….

For the variant chain 1 E9W, the screen value was 0.00436 average fractional NGS count over selection days 2 and 3 (reads of this peptide / all reads for the bait, averaged over ….

As to chain 1 E9T, the screen value is 0.00244 average fractional NGS count over selection days 2 and 3 (reads of this peptide / all reads for the bait, averaged over ….

chain 1 A13P: the screen value was 0.00194 average fractional NGS count over selection days 2 and 3 (reads of this peptide / all reads for the bait, averaged over ….

With chain 1 A13I, the screen value is 0.00149 average fractional NGS count over selection days 2 and 3 (reads of this peptide / all reads for the bait, averaged over ….

Take chain 1 A13N: the screen value was 0.000152 average fractional NGS count over selection days 2 and 3 (reads of this peptide / all reads for the bait, averaged over ….

Take chain 1 A13T: the screen value was 0.000184 average fractional NGS count over selection days 2 and 3 (reads of this peptide / all reads for the bait, averaged over ….

chain 1 A13G: the screen value is 0.000231 average fractional NGS count over selection days 2 and 3 (reads of this peptide / all reads for the bait, averaged over ….

For chain 1 A13W, the screen value is 0.00128 average fractional NGS count over selection days 2 and 3 (reads of this peptide / all reads for the bait, averaged over ….

As for chain 1 A13Q, the screen value is 0.000245 average fractional NGS count over selection days 2 and 3 (reads of this peptide / all reads for the bait, averaged over ….

Turning to chain 1 A13V, the screen value is 0.000342 average fractional NGS count over selection days 2 and 3 (reads of this peptide / all reads for the bait, averaged over ….

For chain 1 A13R, the screen value was 0.000134 average fractional NGS count over selection days 2 and 3 (reads of this peptide / all reads for the bait, averaged over ….

Consider chain 1 A13H, for which the screen value was 0.00442 average fractional NGS count over selection days 2 and 3 (reads of this peptide / all reads for the bait, averaged over ….

chain 1 A13L: the screen value was 0.000528 average fractional NGS count over selection days 2 and 3 (reads of this peptide / all reads for the bait, averaged over ….

Take chain 1 A13S: the screen value was 0.0021 average fractional NGS count over selection days 2 and 3 (reads of this peptide / all reads for the bait, averaged over ….

chain 1 K12V: the screen value was 0.00977 average fractional NGS count over selection days 2 and 3 (reads of this peptide / all reads for the bait, averaged over ….

With chain 1 K12L, the screen value was 0.00105 average fractional NGS count over selection days 2 and 3 (reads of this peptide / all reads for the bait, averaged over ….

As to chain 1 K12E, the screen value was 0.000936 average fractional NGS count over selection days 2 and 3 (reads of this peptide / all reads for the bait, averaged over ….

Turning to chain 1 K12N, the screen value was 0.00219 average fractional NGS count over selection days 2 and 3 (reads of this peptide / all reads for the bait, averaged over ….

For chain 1 K12W, the screen value is 0.0129 average fractional NGS count over selection days 2 and 3 (reads of this peptide / all reads for the bait, averaged over ….

For the variant chain 1 K12H, the screen value is 0.0202 average fractional NGS count over selection days 2 and 3 (reads of this peptide / all reads for the bait, averaged over ….

As to chain 1 K12S, the screen value was 0.0233 average fractional NGS count over selection days 2 and 3 (reads of this peptide / all reads for the bait, averaged over ….

Take chain 1 K12R: the screen value is 0.00196 average fractional NGS count over selection days 2 and 3 (reads of this peptide / all reads for the bait, averaged over ….

On to chain 1 K12P, for which the screen value is 0.00867 average fractional NGS count over selection days 2 and 3 (reads of this peptide / all reads for the bait, averaged over ….

Consider chain 1 K12Y, for which the screen value was 0.00745 average fractional NGS count over selection days 2 and 3 (reads of this peptide / all reads for the bait, averaged over ….

For chain 1 K12I, the screen value is 0.00212 average fractional NGS count over selection days 2 and 3 (reads of this peptide / all reads for the bait, averaged over ….

Take chain 1 K12D: the screen value was 0.000722 average fractional NGS count over selection days 2 and 3 (reads of this peptide / all reads for the bait, averaged over ….

Regarding chain 1 K12Q, the screen value is 0.00267 average fractional NGS count over selection days 2 and 3 (reads of this peptide / all reads for the bait, averaged over ….

As to chain 1 P3T, the screen value was 0.000276 average fractional NGS count over selection days 2 and 3 (reads of this peptide / all reads for the bait, averaged over ….

With chain 1 P3Y, the screen value was 0.000178 average fractional NGS count over selection days 2 and 3 (reads of this peptide / all reads for the bait, averaged over ….

Turning to chain 1 P3A, the screen value is 0.000353 average fractional NGS count over selection days 2 and 3 (reads of this peptide / all reads for the bait, averaged over ….

Take chain 1 P3Q: the screen value is 0.000844 average fractional NGS count over selection days 2 and 3 (reads of this peptide / all reads for the bait, averaged over ….

As to chain 1 P3S, the screen value is 0.00024 average fractional NGS count over selection days 2 and 3 (reads of this peptide / all reads for the bait, averaged over ….

On to chain 1 Y1V, for which the screen value was 0.000255 average fractional NGS count over selection days 2 and 3 (reads of this peptide / all reads for the bait, averaged over ….

Consider chain 1 Y1H, for which the screen value was 0.000114 average fractional NGS count over selection days 2 and 3 (reads of this peptide / all reads for the bait, averaged over ….

Consider chain 1 Y1W, for which the screen value was 0.000316 average fractional NGS count over selection days 2 and 3 (reads of this peptide / all reads for the bait, averaged over ….

As for chain 1 Y1N, the screen value was 0.000299 average fractional NGS count over selection days 2 and 3 (reads of this peptide / all reads for the bait, averaged over ….

Turning to chain 1 Y1K, the screen value was 0.000785 average fractional NGS count over selection days 2 and 3 (reads of this peptide / all reads for the bait, averaged over ….

In the case of chain 1 Y1S, the screen value was 0.000305 average fractional NGS count over selection days 2 and 3 (reads of this peptide / all reads for the bait, averaged over ….

Regarding chain 1 Y1Q, the screen value is 0.000381 average fractional NGS count over selection days 2 and 3 (reads of this peptide / all reads for the bait, averaged over ….

As to chain 1 Y1R, the screen value is 0.000195 average fractional NGS count over selection days 2 and 3 (reads of this peptide / all reads for the bait, averaged over ….

For chain 1 Y1A, the screen value is 0.000622 average fractional NGS count over selection days 2 and 3 (reads of this peptide / all reads for the bait, averaged over ….

As for chain 1 Y1L, the screen value was 0.00157 average fractional NGS count over selection days 2 and 3 (reads of this peptide / all reads for the bait, averaged over ….

On to chain 1 L5I, for which the screen value was 0.00162 average fractional NGS count over selection days 2 and 3 (reads of this peptide / all reads for the bait, averaged over ….

Regarding chain 1 L5V, the screen value was 0.00197 average fractional NGS count over selection days 2 and 3 (reads of this peptide / all reads for the bait, averaged over ….

Regarding chain 1 L5W, the screen value was 0.000869 average fractional NGS count over selection days 2 and 3 (reads of this peptide / all reads for the bait, averaged over ….

For chain 1 T4P, the screen value is 0.00197 average fractional NGS count over selection days 2 and 3 (reads of this peptide / all reads for the bait, averaged over ….

On to chain 1 T4A, for which the screen value was 0.000216 average fractional NGS count over selection days 2 and 3 (reads of this peptide / all reads for the bait, averaged over ….

Regarding chain 1 T4S, the screen value is 0.000737 average fractional NGS count over selection days 2 and 3 (reads of this peptide / all reads for the bait, averaged over ….

Take chain 1 T4Q: the screen value is 0.00351 average fractional NGS count over selection days 2 and 3 (reads of this peptide / all reads for the bait, averaged over ….

On to chain 1 T4V, for which the screen value is 0.000271 average fractional NGS count over selection days 2 and 3 (reads of this peptide / all reads for the bait, averaged over ….

These data come from PMC12102759 (2025).
